Values quoted from earlier work as cited in publication PMC4526918.

Target: HAESA-LIKE2 (HSL2) (Arabidopsis thaliana) (UniProt C0LGX3)
Sequence of UniProt C0LGX3 (C0LGX3 29-632): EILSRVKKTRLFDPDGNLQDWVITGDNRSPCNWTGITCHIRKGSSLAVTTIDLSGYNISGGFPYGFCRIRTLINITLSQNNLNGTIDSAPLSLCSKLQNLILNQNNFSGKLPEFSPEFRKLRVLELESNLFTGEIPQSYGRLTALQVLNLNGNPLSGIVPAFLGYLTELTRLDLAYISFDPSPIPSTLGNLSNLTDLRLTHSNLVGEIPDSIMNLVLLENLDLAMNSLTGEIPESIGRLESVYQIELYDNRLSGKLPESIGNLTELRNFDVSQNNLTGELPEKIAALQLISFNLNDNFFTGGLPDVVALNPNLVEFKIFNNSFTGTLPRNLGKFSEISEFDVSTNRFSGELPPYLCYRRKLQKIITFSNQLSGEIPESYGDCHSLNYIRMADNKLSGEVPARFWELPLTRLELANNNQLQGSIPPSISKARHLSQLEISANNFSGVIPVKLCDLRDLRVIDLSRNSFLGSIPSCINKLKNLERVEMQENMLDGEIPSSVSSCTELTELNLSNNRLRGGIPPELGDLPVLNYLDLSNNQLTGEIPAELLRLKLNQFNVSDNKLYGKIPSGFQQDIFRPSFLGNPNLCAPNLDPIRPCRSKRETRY

In the case of “IDA peptide (IDAp) (from UniProt Q8LAD7)”, the Kd is listed as 20 nM.
